Assay: label from the status in PepcDB records

In the case of “MPIMGSSVYITVELAIAVLAILGNVLVCWAVWLNSNLQNVTNYFVVSLAAADIAVGVLAIPFAITISTGFCAACHGCLFIACFVLVLTQSSIFSLLAIAIDRYIAIRIPLRYNGLVTGTRAKGIIAICWVLSFAIGLTPMLGWNNCGQPKEGKNHSQGCGEGQVACLFEDVVPMNYMVYFNFFACVLVPLLLMLGVYLRIFLAARRQLKQMESQPLPGERARSTLQKEVHAAKSLAIIVGLFALCWLPLHIINCFTFFCPDCSHAPLWLMYLAIVLSHTNSVVNPFIYAYRIREFRQTFRKIIRSHVLRQQEPFKAAGTSARVLAAHGSDGEQVSLRLNGHPPGVWANGSAPHPERRPNGYALGLVSGGSAQESQGNTGLPDVELLSHELKGVCPEPPGLDDPLAQDGAGVS”, the protein production is reported as “not failed”.

In the case of “MGFYQGPDNRKITGGLKGKHRDKRKYEIGNPPTFTTLSAEDIRIKDRTLGGNFKVRLKYTTTANVLDPATNTAKKVKILEILETPANKELARRGIIIRGAKIRTEAGLAVVTSRPGQDGVINAVLLKNESQRSLEHHHHHH”, the protein production is reported as “failed”.

For “PPKIRVVVRKRPISKKERERGDDDVVDVLAKNNTVVVNEEKVKVDLTKYLEKHAFKFDESLDENVSNEAVYQLTVGPLVRTLFRNGRASCFAYGQTGSGKTYTMSPLPIRASADIFTFMAQQQYRDISLCVSCFEIYGNKVFDLLNARKKLNILEDGKKKVVVVGLKEFGVDDVDGVKALIEESAKNRSTGSTAANADSSRSHSIMQFALKRAA”, the protein production was “failed”.

In the case of “MVAIAQGLPHDLLAPAWQILILGDGSPTRHLQLLTGETTEVDVIDMSAIGHAGDRAPAQLQLIPGPRLRRQVWLRTASGQRLAYATSWWEAAHVDEYLQNRAMPIWTNLAQRKLELYRDIQAVYLGHSETLAAAFGEAGPFWGRHYLFWHDRRPITLIYEVFSPYLCRYLGPMGSTAYWANSALPFALEHHHHHH”, the protein production is reported as “failed”.

In the case of “MSYEAIMLERNGAVGVLTFNRPEVLNAYNRTLAADIITGFNELVADKSVRAIVLTGAGKAFMAGADINMVNGWTKLGNAAKIKEDLRQLVNPNMIEDCPKPTIAAVNGLAFGMGCELAMACDFRIAAEKAQFGQPEVKLGIIPGAGGSQRLRELVGPTRALEMISTGDPIDAQEAYRIGLVNQVVPRDELMEAVNAFAGRLIDKGAVVLDICKKLVYEGGDLPLRGGIDYEQDQFCKILLTADAQEGTLAFLEKRKPVFNKG”, the protein production is reported as “failed”.

With “MERKINRREKEKEYEGKHNSLEDTDQGKNCKSTLMTLNVGGYLYITQKQTLTKYPDTFLEGIVNGKILCPFDADGHYFIDRDGLLFRHVLNFLRNGELLLPEGFRENQLLAQEAEFFQLKGLAEEVKSRWEKEQLTPRETTFLEITDNHDRSQGLRIFCNAPDFISKIKSRIVLVSKSRLDGFPEEFSISSNIIRFKYFIKSENGTRLVLKEDNTFVCTLETLKFEAIMMALKCGFRLLTSLDCSKGSIVHSDALHFIK” the protein production was “not failed”.

With “MSENLTMSELMDSFELKHFHKGEIVKGKVISVKNDEIIVNIGHFADGVVPRNEISNDKNFDINSINVDDDIFVMVLSGDDGEGNVLLSKKRADAIKVCDDLKEAFEEEKSIKVSLKEVVKGGIVGDFNGLRVFMPASQCAGRRIENLEELVGKTLEVRVIEFNKENRKVVVSRRVIDEEIRNNEKKALWSSIKEGEKRKGKVTRLAKFGAFVDIGGVEGLVHLSDMSWSRVHKPEEVVSVGDEVEVFVSEVDMDRERIALSLKDVIKNPWETLEGLKVGNVVLGKVTNFIKVGAFVEVLPGIEGLVHISEITDENIAKPSDILELGQEVKVKILNIDDENKKMSLSIKDAVETSNEYMQYNDEEEGYSLADLFKGLNLLEHHHHHH” the protein production was “not failed”.

For “MDKRFVQAHKEARWALWLTLLYLAAWLAAAYLPGVAIGFTGLPHWFEMACLLVPLLFILLCWAMVKLIFRDISLEDDDAV”, the protein production was “failed”.

For “MVGQREPAPVEEVKPAPEQPAEPQQPVPTVPSVPTIPQQPGPIEHEDQTAPPAPHIRHYDWNGAMQPMVSKMLGADGVTAGSVLLVDSVNNRTNGSLNAAEATETLRNALANNGKFTLVSAQQLSMAKQQLGLSPQDSLGTRSKAIGIARNVGAHYVLYSSASGNVNAPTLQMQLMLVQTGEIIWSGKGAVSQQLEHHHHHH”, the protein production was “not failed”.

For “FFSVSNIGLHARAYKDKLFVHTASLRSGNPYKQVDLLVLDAKGETVLQGATDDNGNALLNYTLNAGHVLVSRNGRDISILPFNQPALDLSEFAVAGRENPWFDVFAWSGRDLYRPGEMLRISALLRDRDGKPVKPQPVFLRLKQPDGKTFRETRLQPAEQGYLEFTQKIPSDAPTGRWRVEFRTDPASKEAVQGLAVRVEEFLPERMKLELSSAQPVLRAKAPFTLTADAAYLYGAPAAGNRFTANLAVAVEQHPLDNMPGWFFGDATL”, the protein production was “failed”.

With “MAYLVFAYLVGSLVAGLLFFPEVRGKDLPGGSGVFRRKGPWAALLAVAFDLGKGALVALLTPEAYLPWAGALLVAGHTWPVFFRFRGGGGIAPSLGFFLVWRPAETLWATLFGLGVAGLYHLLFWRRRRKGIYPIPFGAIFGYLLLVYTLSGEARLGALLVAGVVLLRGLQILAGRW” the protein production was “failed”.

In the case of “HVAGHHLAPTIIAADQHWLLVNWLEGDVVTHAQFIELSNNGQLAQLLTRLHHLPASGYRLDLRAQLIRYAGQIDTKRLSPSWLRLHQHFQRRSPPQPVKLAPLHMDIHPGNLLATPSGLKLIDWEYAADGDIALDIAALFRGNGWSAPQQQAFLQHYCLNEQGYPDIDRLSRQIQRWVPWVDYLMLMWFEVRWQQTGD”, the protein production is reported as “failed”.

With “MTDTNVLANSATDNQETTHFGFETVRKDEKVHKVAQVFHSVAAKYDIMNDLMSGGIHRLWKRFTIDCSGARPGQRILDLGGGTGDLTAKFSRIVGEKGHVILADINNSMLNVGRDKLRDSGVVGNVHYVQANAEELPFPDNYFDCITISFCLRNVTDKDKALRSMFRVLKPGGRLLVLEFSKPILEPLSKLYDTYSFHILPKMGQLIANDADSYRYLAESIRMHPDQETLKGMMEEAGFEQTTYYNLTGGIVALHRGYKFLEHHHHHH” the protein production was “not failed”.

For “MSSSVVAETVPSGSGSWFSHFKATLVLGIPLIGAQLAQLGIHTTDMVIVGQLGAEKLAAMVLAGQFFFVVFIFGSGFSVAVVPMVAQAYGQGDATSARRSLRMGMWVAIAYWLLALPIFFNAERILVYLGQNPNVAALTGHYLAIAKFGLLPALLFYVLRGLVSAIGRAGIILYVTIIMLVMNGLMAYVLVFGHFGLPAMGMNGAAVVAVIVNAFSFIFIVAYVQTREETKKYELFVRFWRPDWHALFEVLRLGLPISITILAEVTLFAAASILMGQIGTVQLAAHGIALQLASIAFMIPLGLSQAATVRVGVARGQGDFKNLIRASIMIYAIACGIALCGGILFAAVPEFLAKWFLDPKLPEAAEVLAYASSLVVIAGIFQLVDGIQAVTAGLLRGLKDARIPAMLALISYWPIGLALAWTMAFPLGFGGRGVWFGFVIGLSTAAVLLTVRFVLLVKREMKTAR”, the protein production was “failed”.

For “MPGSRDILADLVAFDTVSRESNLALIDYVRDYLAGFGVDSELFFDADGRKANLYATIGPSDRGGVCLSGHTDVVPADGQAWSVPPFRLSERDGRLYGRGTADMKGYLACVLAAVPAFLAAPLRLPVHLAFSYDEEVGCLGVRSLLAALERRPHKPLLCIIGEPTELKPVLGHKGKLAMRCEVHGAACHSAYAPQGVNAIEYAARLIGRLGEIGARLAVPERHDRRFDPPYSTVQTGLIQGGRALNIVPAECRFDFEVRALPADDPRQVAEELRDYAESELLPRMRAVERSTDIRFTPLSAYPGLLTADDSQAAELIGLLSGSTDFSTVAFGTEGGLFHQAGIPAVICGPGSMDQGHKPDEFVSLAQLEACDALLARLAAW”, the protein production was “failed”.

In the case of “MFRTALRNVFAHKARLLMTVLAVMLGVAFVSGTLVFADTLSNAFRNQSAKSYQDVAVAVTSYADSDNPKDEYALSDEVLDRISAVDGVAGVYGRVEGFAGVADPDGKLIGVGWSNKGSNFAPGKDGKDAAYTFTDGSGPVKDDQIALDEDSAGKGEYQVGDRVRVATNGPVKEYTLSGVFTTEDGAVNAGGSLVLFDTAVAQKQYLRPGYFESATVAAAPGADDARILKAVEPLLPDTAEAQTGRALADEQADQIEQGMGNLKQVLLGFAGIALFVGIFLISNTFTMLVAQRTKEIALMRAVGASRRQITRSVLAEAALVGLVASAVGFALGVGLAVGLRSGMAAFDMKMPAGPLVLSATPVVAAFAVGVLITVFAAWLPGRRAAKIPPVAAMNS”, the protein production is reported as “failed”.

In the case of “MNNIRLLNQNDLDSYIELMKFGHHNYEWDRYYLENVSIDRLKTILSNHTDYWNIFGAFEDDELVATCTLKQMNYVGKCHKAILENNFVKNNDEIVNRELINHIIQYAKEQNIETLMIAIASNNISAKVFFSSIGFENLAFEKNASKIGNEYFDENWLIYSTTE”, the protein production is reported as “failed”.

With “MKTRDKIIQASLELFNEHGERTITTNHIAAHLDISPGNLYYHFRNKEDIIRCIFDQYEQHLLLGFKPYADQKVDLELLMSYFDAMFYTMWQFRFMYANLADILARDDTLKARYLKVQQAVLEQSIAVLNQLKKDGILQIEDERIADLADTIKMIIGFWISYKLTQSSIATISKASLYEGLLRVLMIFKAYSTPDSLANFDRLEQHFRSQSN” the protein production was “not failed”.

In the case of “MFKRIAQTAGFTGLLAALLLTLLQSFWVVPLIQQAETYEKAPAEHVHEHADGAVAEHSHAHDEAAWEPENGWQRVLSTTGGNLVVAVGFALMLAGLYTLRAPGRTAQGAWWGLAGFAVFVLAPTLGLPPELPGTAAAELSQRQLWWIGTAASTAAGLALLVFGQNWLLKVLGAAILVVPHVIGAPQPLVHESLAPEALESQFRVASLLTNALFWVALGLISAWLFRRSNVHTDNAHSNHA”, the protein production is reported as “failed”.

In the case of “MTASNPTILALDFDGVICDGLIEYFEVAWRTYCQIWSPAENTPPDDLALRFYRLRPVIETGWEMPVLIKALVDGNSDDQILQEWTSITPKILLDDKLQAKEIATKLDGLRDEWIANDLDGWLSLHRFYQGVIEKLKIAVASEVKLYIVTTKEGRFVEQLLHQEGVDLPRDAIFGKEVKRPKYEIIRELIQAADHEPVSLWFVEDRIKTLQLVQQQSDLEDVKLFLADWGYNTQSERKAAQSDPRIQLLSLSQFAKDFPGWV”, the protein production is reported as “failed”.

With “MGNCCVSSGTTDRENENVSDKNTTIVEEETVVKEVLSETTLFTPSSSFRTSTFKDPVKTKIREDEEKKPGFLKMASDPVLIRPGSVDPEEGSEVSEICSLSLSESVSSTVVMNGYDEEHVMMKQRKSQRSPAKTRTQVTGNNYPTRRTDQSPRKRNNGTCNGARYGSGVRDPGERSGRRSRSPATNRSVMDSNQSSRVGGAKTRKNNQSPGRVRLDPAKNGLDQQQHQNYGYTTEELLENPLVSLECFIFL” the protein production was “failed”.

For “ITKRNVELRVDDSLMRVYVASPKPVGVYPGIVFYSDIYQLGSPIIRLANYLAGFGYVVAAPEIFHRLEPIGLVIEPDDLGRMRGNDNARRTAIAEYDADSRAVIDFLKAETTVNANK”, the protein production was “failed”.

With “MIGPMWSDVIDLRDFYATSQGQLTRRLIGRSLRALWPEVRGCRVLGLGYAVPFLQPFADEAERVVAMMPAPMGAVRWPSVGPVQGALADELELPLPDRSIDRLLLIHGLEFADHAHGLLRECWRVLADNGRLMVVVPNRRATWARMERSPFANGQPYSEGQLTRLLRDRLFTPIASSTALFMPPSRSRMVMGSASLLEQIGCRLFPAFGGVVVVDCAKQIAAPVLRSAVASRRVYVGVGLSQPLQGSSRAGFKNPAPFTGVDGS” the protein production was “failed”.

For “MTFRGPSPPRFGHSMDLPAYAIEAEGLYKTYAGTKTSPEKRALNGIDLKIPRGSIFGLLGPNGAGKSTFINILAGLVRKSSGTVRIWGRDIDQRPRDARAAIGVVPQELAADVFFTPRESLEVQAGFYGVPKSERRTDELLNALGLGDKAGAYVRQLSGGMKRRLMVAKAMVHQPPVLILDEPTAGVDVELRRQLWQYVTSLNELGVTIVLTTHYLEEAQELCDEIAIINRGEVVACEPTAKLLSRMDSRNVVVTPESPVTAAPVLEGFDTKLRSGGAFSVSYRTGQSSVEQVLAAVRASGLHIKDIATEDPDLEDVFVALTYGDPNAADPTKDLEHHHHHH”, the protein production was “failed”.

— a protein production outcome set (Wang et al. 2014)
